Test results from the supplement of paper PMC11316812.
± gives the standard deviation of the averaged measurements.

What was measured:
hTERT-HMEC = assay: percentage of EdU-negative (G0-arrested) nuclei per well, 72 h; higher = more G0 arrest; conditions: reference: sequence is the full UniProt precursor, the tested protein was the secreted form or ectodomain
MCF7 = assay: as above; conditions: reference: sequence is the full UniProt precursor, the tested protein was the secreted form or ectodomain
[1] = protein concentration 0.00925 µM
[2] = protein concentration 0.0925 µM
[3] = protein concentration 0.0225 µM
[4] = protein concentration 0.0135 µM
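Also: secreted proteins added to cultured cells, EdU pulse at the end, nuclei found by Hoechst imaging, EdU status from nuclear versus surrounding ring intensity ratio, PBS as neutral control.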

Sequence: MLQGPGSLLLLFLASHCCLGSARGLFLFGQPDFSYKRSNCKPIPANLQLCHGIEYQNMRLPNLLGHETMKEVLEQAGAWIPLVMKQCHPDTKKFLCSLFAPVCLDDLDETIQPCHSLCVQVKDRCAPVMSAFGFPWPDMLECDRFPQDNDLCIPLASSDHLLPATEEAPKVCEACKNKNDDDNDIMETLCKNDFALKIKVKEITYINRDTKIILETKSKTIYKLNGVSERDLKKSVLWLKDSLQCTCEEMNDINAPYLVMGQKQGGELVITSVKRWQKGQREFKRISRSIRKLQC [Q96HF1]
- percentage of EdU-negative (hTERT-HMEC; [1]): 5.51 ± 0.23%
- percentage of EdU-negative (hTERT-HMEC; [2]): 5.34 ± 0.013%
- percentage of EdU-negative (MCF7; [1]): 21.9 ± 2.5%
- percentage of EdU-negative (MCF7; [2]): 26.3 ± 1.9%

Sequence: MLQGTCSVLLLWGILGAIQAQQQEVISPDTTERNNNCPEKTDCPIHVYFVLDTSESVTMQSPTDILLFHMKQFVPQFISQLQNEFYLDQVALSWRYGGLHFSDQVEVFSPPGSDRASFIKNLQGISSFRRGTFTDCALANMTEQIRQDRSKGTVHFAVVITDGHVTGSPCGGIKLQAERAREEGIRLFAVAPNQNLKEQGLRDIASTPHELYRNDYATMLPDSTEIDQDTINRIIKVMKHEAYGECYKVSCLEIPGPSGPKGYRGQKGAKGNMGEPGEPGQKGRQGDPGIEGPIGFPGPKGVPGFKGEKGEFGADGRKGAPGLAGKNGTDGQKGKLGRIGPPGCKGDPGNRGPDGYPGEAGSPGERGDQGGKGDPGRPGRRGPPGEIGAKGSKGYQGNSGAPGSPGVKGAKGGPGPRGPKGEPGRRGDPGTKGSPGSDGPKGEKGDPGPEGPRGLAGEVGNKGAKGDRGLPGPRGPQGALGEPGKQGSRGDPGDAGPRGDSGQPGPKGDPGRPGFSYPGPRGAPGEKGEPGPRGPEGGRGDFGLKGEPGRKGEKGEPADPGPPGEPGPRGPRGVPGPEGEPGPPGDPGLTECDVMTYVRETCGCCDCEKRCGALDVVFVIDSSESIGYTNFTLEKNFVINVVNRLGAIAKDPKSETGTRVGVVQYSHEGTFEAIQLDDERIDSLSSFKEAVKNLEWIAGGTWTPSALKFAYDRLIKESRRQKTRVFAVVITDGRHDPRDDDLNLRALCDRDVTVTAIGIGDMFHEKHESENLYSIACDKPQQVRNMTLFSDLVAEKFIDDMEDVLCPDPQIVCPDLPCQTELSVAQCTQRPVDIVFLLDGSERLGEQNFHKARRFVEQVARRLTLARRDDDPLNARVALLQFGGPGEQQVAFPLSHNLTAIHEALETTQYLNSFSHVGAGVVHAINAIVRSPRGGARRHAELSFVFLTDGVTGNDSLHESAHSMRKQNVVPTVLALGSDVDMDVLTTLSLGDRAAVFHEKDYDSLAQPGFFDRFIRWIC
- percentage of EdU-negative (hTERT-HMEC; protein concentration 0.013 µM): 6.76 ± 1.4%
- percentage of EdU-negative (hTERT-HMEC; protein concentration 0.13 µM): 50.9 ± 9.9%
- percentage of EdU-negative (MCF7; protein concentration 0.013 µM): 27.1 ± 0.99%
- percentage of EdU-negative (MCF7; protein concentration 0.13 µM): 27.7 ± 1.8%

Sequence: MLQLWKLVLLCGVLTGTSESLLDNLGNDLSNVVDKLEPVLHEGLETVDNTLKGILEKLKVDLGVLQKSSAWQLAKQKAQEAEKLLNNVISKLLPTNTDIFGLKISNSLILDVKAEPIDDGKGLNLSFPVTANVTVAGPIIGQIINLKASLDLLTAVTIETDPQTHQPVAVLGECASDPTSISLSLLDKHSQIINKFVNSVINTLKSTVSSLLQKEICPLIRIFIHSLDVNVIQQVVDNPQHKTQLQTLI [Q96DR5]
- percentage of EdU-negative (hTERT-HMEC; [3]): 4.84 ± 0.42%
- percentage of EdU-negative (hTERT-HMEC; protein concentration 0.225 µM): 4.68 ± 0.1%
- percentage of EdU-negative (MCF7; [3]): 27.4 ± 1.7%
- percentage of EdU-negative (MCF7; protein concentration 0.225 µM): 27.4 ± 1.2%

Sequence: MLRAALPALLLPLLGLAAAAVADCPSSTWIQFQDSCYIFLQEAIKVESIEDVRNQCTDHGADMISIHNEEENAFILDTLKKQWKGPDDILLGMFYDTDDASFKWFDNSNMTFDKWTDQDDDEDLVDTCAFLHIKTGEWKKGNCEVSSVEGTLCKTAIPYKRKYLSDNHILISALVIASTVILTVLGAIIWFLYKKHSDSRFTTVFSTAPQSPYNEDCVLVVGEENEYPVQFD [Q8IX05]
- percentage of EdU-negative (hTERT-HMEC; [3]): 4.48 ± 0.56%
- percentage of EdU-negative (hTERT-HMEC; protein concentration 0.225 µM): 5.29 ± 0.55%
- percentage of EdU-negative (MCF7; [3]): 25.83 ± 0.12%
- percentage of EdU-negative (MCF7; protein concentration 0.225 µM): 25.38 ± 0.14%

Sequence: MLRAGWLRGAAALALLLAARVVAAFEPITVGLAIGAASAITGYLSYNDIYCRFAECCREERPLNASALKLDLEEKLFGQHLATEVIFKALTGFRNNKNPKKPLTLSLHGWAGTGKNFVSQIVAENLHPKGLKSNFVHLFVSTLHFPHEQKIKLYQDQLQKWIRGNVSACANSVFIFDEMDKLHPGIIDAIKPFLDYYEQVDGVSYRKAIFIFLSNAGGDLITKTALDFWRAGRKREDIQLKDLEPVLSVGVFNNKHSGLWHSGLIDKNLIDYFIPFLPLEYRHVKMCVRAEMRARGSAIDEDIVTRVAEEMTFFPRDEKIYSDKGCKTVQSRLDFH
- percentage of EdU-negative (hTERT-HMEC; protein concentration 0.005 µM): 5.1 ± 0.71%
- percentage of EdU-negative (hTERT-HMEC; protein concentration 0.05 µM): 6.38 ± 0.16%
- percentage of EdU-negative (MCF7; protein concentration 0.005 µM): 27.8 ± 1%
- percentage of EdU-negative (MCF7; protein concentration 0.05 µM): 24.9 ± 1.3%

Sequence: MLRFYLFISLLCLSRSDAEETCPSFTRLSFHSAVVGTGLNVRLMLYTRKNLTCAQTINSSAFGNLNVTKKTTFIVHGFRPTGSPPVWMDDLVKGLLSVEDMNVVVVDWNRGATTLIYTHASSKTRKVAMVLKEFIDQMLAEGASLDDIYMIGVSLGAHISGFVGEMYDGWLGRITGLDPAGPLFNGKPHQDRLDPSDAQFVDVIHSDTDALGYKEPLGNIDFYPNGGLDQPGCPKTILGGFQYFKCDHQRSVYLYLSSLRESCTITAYPCDSYQDYRNGKCVSCGTSQKESCPLLGYYADNWKDHLRGKDPPMTKAFFDTAEESPFCMYHYFVDIITWNKNVRRGDITIKLRDKAGNTTESKINHEPTTFQKYHQVSLLARFNQDLDKVAAISLMFSTGSLIGPRYKLRILRMKLRSLAHPERPQLCRYDLVLMENVETVFQPILCPELQL [Q8WWY8]
- percentage of EdU-negative (hTERT-HMEC; [4]): 5.39 ± 1.9%
- percentage of EdU-negative (hTERT-HMEC; protein concentration 0.135 µM): 14.6 ± 3%
- percentage of EdU-negative (MCF7; [4]): 25.5 ± 2.4%
- percentage of EdU-negative (MCF7; protein concentration 0.135 µM): 29.4 ± 2.3%

Sequence: MLRGISQLPAVATMSWVLLPVLWLIVQTQAIAIKQTPELTLHEIVCPKKLHILHKREIKNNQTEKHGKEERYEPEVQYQMILNGEEIILSLQKTKHLLGPDYTETLYSPRGEEITTKPENMEHCYYKGNILNEKNSVASISTCDGLRGYFTHHHQRYQIKPLKSTDEKEHAVFTSNQEEQDPANHTCGVKSTDGKQGPIRISRSLKSPEKEDFLRAQKYIDLYLVLDNAFYKNYNENLTLIRSFVFDVMNLLNVIYNTIDVQVALVGMEIWSDGDKIKVVPSASTTFDNFLRWHSSNLGKKIHDHAQLLSGISFNNRRVGLAASNSLCSPSSVAVIEAKKKNNVALVGVMSHELGHVLGMPDVPFNTKCPSGSCVMNQYLSSKFPKDFSTSCRAHFERYLLSQKPKCLLQAPIPTNIMTTPVCGNHLLEVGEDCDCGSPKECTNLCCEALTCKLKPGTDCGGDAPNHTTE
- percentage of EdU-negative (hTERT-HMEC; [3]): 4.82 ± 0.43%
- percentage of EdU-negative (hTERT-HMEC; protein concentration 0.225 µM): 12.07 ± 0.12%
- percentage of EdU-negative (MCF7; [3]): 25.9 ± 0.54%
- percentage of EdU-negative (MCF7; protein concentration 0.225 µM): 27.7 ± 1.7%
